Where “and” joins values, the source holds several entries; their conditions need not be identical. Equal entries are not always repeated.
Molecular target: T1, endogenously expressed σ1R of mouse brain cortex (mouse (endogenous in brain cortex)), O55242
T1 chain: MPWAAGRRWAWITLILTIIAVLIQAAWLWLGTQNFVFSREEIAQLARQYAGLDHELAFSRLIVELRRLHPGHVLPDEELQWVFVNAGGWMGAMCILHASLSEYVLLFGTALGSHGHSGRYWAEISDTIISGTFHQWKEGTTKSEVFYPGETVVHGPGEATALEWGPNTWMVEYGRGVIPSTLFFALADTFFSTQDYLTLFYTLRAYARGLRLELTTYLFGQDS
Assay: SDS-PAGE western blot without heat denaturation; mouse brain cortex homogenised in lysis buffer, samples kept on ice, same protocol as for the transfected cells
Conditions: remark: other sources report otherwise

B1: endogenously expressed σ1R of mouse brain cortex, O55242 1-223 (receptor)
chain: T1 chain
B1 was tested, and the stoichiometry N was 2 and 4.
